Patent publication US10273490B2, “Erythritol production in cyanobacteria” (Photanol B.V., priority 2014, dated 2019)
Like-named read-outs stand apart in the source and are kept apart here.

What was measured:
Synechocystis PCC6803 = assay: Toxicity assay for erythritol: resistance of Synechocystis PCC6803, growth rate; assay type: cell-based; conditions: BG-11, pH 8.0, low light ~40 μE, 30° C.
Description: FIG. 4. Toxicity assay for erythritol. Synechocystis PCC6803 was inoculated in 10 ml BG-11 supplemented with 10 mM TES-buffer-NaOH (pH=8.0) and with 10 μg/ml kanamycine at an OD of 0.2. The culture was incubated at low light intensity (˜40 μE), 30° C. and shaking at 120 rpm. It was clearly shown (FIG. 4) that up to a concentration of 10 gr/L erythritol, cultures are not affected with respect to growth-rate.

[1] = substrate D-erythrose-4-P; cited from earlier work
[2] = substrate D-erythrose; cited from earlier work
[3] = co-factor NADPH; cited from earlier work

## OC[C@@H](O)[C@@H](O)CO [erythritol]
Synechocystis PCC6803
  erythritol concentration up to which cultures are not affected with respect to growth-rate: ≤ 10 gr/L

B1: YidA: phosphatase from Escherichia coli, SEQ ID NO: 1, 2 (protein, listed as Escherichia coli)
chain: MAIKLIAIDMDGTLLLPDHTISPAVKNAIAAARARGVNVVLTTGRPYAGVHNYLKELHMEQPGDYCITYNGALVQKAADGSTVAQTALSYDDYRFLEKLSREVGSHFHALDRTTLYTANRDISYYTVHESFVATIPLVFCEAEKMDPNTQFLKVMMIDEPAILDQAIARIPQEVKEKYTVLKSAPYFLEILDKRVNKGTGVKSLADVLGIKPEEIMAIGDQENDIAMIEYAGVGVAMDNAIPSVKEVANFVTKSNLEDGVAFAIEKYVLN
[1]
  D-erythrose-4-P Kcat: 19 s⁻¹
  Km: 19 µM

B2: TM1254: phosphatase from Thermotoga maritima MSB8, SEQ ID NO: 5, 6 (protein, listed as Thermotoga maritima)
chain: MEAVIFDMDGVLMDTEPLYFEAYRRVAESYGKPYTEDLHRRIMGVPEREGLPILMEALEIKDSLENFKKRVHEEKKRVFSELLKENPGVREALEFVKSKRIKLALATSTPQREALERLRRLDLEKYFDVMVFGDQVKNGKPDPEIYLLVLERLNVVPEKVVVFEDSKSGVEAAKSAGIERIYGVVHSLNDGKALLEAGAVALVKPEEILNVLKEVL
[1]
  D-erythrose-4-P Vmax: 2.63 umol/min/mg protein
  Km: 152 µM

B3: GLD1: reductase from Hypocrea jecorina (Trichoderma reesei), SEQ ID NO: 11, 12 (protein, listed as Hypocrea jecorina)
chain: MSSGRTVTLNTGYKIPQIGYGTWQAAPGEVGAGVFEALKVGYRHLDLAKVYGNQKEVGEGIKKALAEVPGLKREDIFITSKLWNNSHKPEDVEPALDDTLAELGLDYLDLYLIHWPVAFAPGADLFPKSEDGSEVQLNQNVSIVQTWKAMTELPKSKVRSVGVSNFTIEHLDAVIEATGVVPAVNQIERHPRLPNQPLIDYCAKKGIIITAYSAFGNNTKGLPLLVSSDEVKAVADNLSKKQGKTVTPAQVILAWSQIGGHTVIPKSVTKARIAENFQEVELDDEAIAALNKLGEKPQRFNIPYTYKPRWNINLFNTEEEKAAAHTAVIKL
[2]
  Km: 16 to 134 µM

B4: ALR1: reductase from Aspergillus niger, SEQ ID NO: 13, 14 (protein)
chain: MSLGKKVTLNSGAQIPQLGFGTWQSAPGQVGDAVYEALKAGYRHLDLATIYQNQREVAEGIKRAYKDVPGLKREDIFITSKLWNSQHDPAVVEKALDECLAELELDYLDLYLVHWPVSFTTGSELFPLVKDSSVEGGDVVINDDISIVDTWKAMTQLPKSKARTVGVSNHMIPHLEAIINATGVVPAVNQIERHPVLQSNELIEYCQKKGIHVTAYSAFGNNGFGVPLLVTRPEVKEVAESASKRLGTTVTPAQVILAWSQVGGHSVIPKSVTPSRIHENFKEVELTPEEIAKVSELGKDRRRYNTPYVANTPRWDIDIFGEEEEKPAGHKVIV
modifications: Aspergillus niger
[2]
  D-erythrose Kcat: 25 s⁻¹
  Km: 139 µM

B5: ErCm: reductase from Candida magnolia JH110, SEQ ID NO: 9, 10 (protein, listed as Candida magnoliae)
chain: MSSTYTLTRLSAPSMVLNSGSQIPAVGYGLWKQQGSEAKDSVRCAIESGYRHLDCATAYQNHKEVGQAIREAGVPRDELWITSKVWGTHFDNPEEGLDDILEELGVEYLDLLLLHLPVAFKRNPEDPKQLRGLPVDHDMKYADVWARMEKLPKSKVRNIGVSNLTVRALDELLQTAKVTPAVNQVEMHPNLPQKKLLDYCKSKGIVVQAYSPLAQGQHENPVVTDIADDLGVSPAQVVLSWGALRGTNILPKSSTPSRIRENLELIQLSDDHMRRIDALARR
[3]
  Km: 16 µM
  NADPH Kcat: 48 s⁻¹
[2]
  D-erythrose Kcat: 7.6 s⁻¹
  Km: 8500 µM

B6: Gcy1p: erythrose reductase from Saccharomyces cerevisiae, SEQ ID NO: 7, 8 (protein, listed as Saccharomyces cerevisiae)
chain: MPATLHDSTKILSLNTGAQIPQIGLGTWQSKENDAYKAVLTALKDGYRHIDTAAIYRNEDQVGQAIKDSGVPREEIFVTTKLWCTQHHEPEVALDQSLKRLGLDYVDLYLMHWPARLDPAYIKNEDILSVPTKKDGSRAVDITNWNFIKTWELMQELPKTGKTKAVGVSNFSINNLKDLLASQGNKLTPAANQVEIHPLLPQDELINFCKSKGIVVEAYSPLGSTDAPLLKEPVILEIAKKNNVQPGHVVISWHVQRGYVVLPKSVNPDRIKTNRKIFTLSTEDFEAINNISKEKGEKRVVHPNWSPFEVFK
[2]
  Km: 3400 µM
